Ends that are not written are not given here.
Target: T1, fibrin in tumor, Neuro 2A neuroblastoma (Mus musculus, UniProt E9PV24+Q8K0E8+Q8VCM7)
T1 construct: from tissue; host or cells: tumor stroma of living mice (BALB-neuT mammary tumor, TRAMP prostate tumor, Neuro-2a neuroblastoma in A/J mice)
T1 sequence (E9PV24 20-557 isoform E9PV24-2 limits assumed): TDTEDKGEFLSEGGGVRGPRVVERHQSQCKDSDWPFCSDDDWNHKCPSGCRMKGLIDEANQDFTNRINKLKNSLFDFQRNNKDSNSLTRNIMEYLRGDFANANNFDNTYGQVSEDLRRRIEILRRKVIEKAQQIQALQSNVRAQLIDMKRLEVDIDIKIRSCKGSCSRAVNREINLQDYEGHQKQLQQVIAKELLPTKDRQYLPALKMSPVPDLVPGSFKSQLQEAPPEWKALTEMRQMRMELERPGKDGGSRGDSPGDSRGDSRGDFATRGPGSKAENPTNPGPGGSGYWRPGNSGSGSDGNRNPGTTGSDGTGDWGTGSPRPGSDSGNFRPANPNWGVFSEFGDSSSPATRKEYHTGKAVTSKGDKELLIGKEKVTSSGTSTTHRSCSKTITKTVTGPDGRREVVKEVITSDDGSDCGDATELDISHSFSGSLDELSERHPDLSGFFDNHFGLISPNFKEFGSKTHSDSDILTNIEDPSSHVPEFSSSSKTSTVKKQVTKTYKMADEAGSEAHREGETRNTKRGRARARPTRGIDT
T1 sequence (Q8K0E8 35-481 limits assumed): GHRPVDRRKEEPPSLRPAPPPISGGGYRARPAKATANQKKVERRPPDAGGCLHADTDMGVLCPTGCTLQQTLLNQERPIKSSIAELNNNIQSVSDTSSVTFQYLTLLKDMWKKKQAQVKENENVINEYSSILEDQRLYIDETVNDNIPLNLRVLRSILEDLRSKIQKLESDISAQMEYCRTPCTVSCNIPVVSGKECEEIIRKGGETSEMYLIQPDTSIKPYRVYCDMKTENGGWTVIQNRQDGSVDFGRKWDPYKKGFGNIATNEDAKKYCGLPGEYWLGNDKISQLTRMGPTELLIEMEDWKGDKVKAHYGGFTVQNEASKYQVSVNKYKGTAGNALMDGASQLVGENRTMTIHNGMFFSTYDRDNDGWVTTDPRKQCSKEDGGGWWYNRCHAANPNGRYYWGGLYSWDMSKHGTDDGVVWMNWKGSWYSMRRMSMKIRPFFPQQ
T1 sequence (Q8VCM7 26-436): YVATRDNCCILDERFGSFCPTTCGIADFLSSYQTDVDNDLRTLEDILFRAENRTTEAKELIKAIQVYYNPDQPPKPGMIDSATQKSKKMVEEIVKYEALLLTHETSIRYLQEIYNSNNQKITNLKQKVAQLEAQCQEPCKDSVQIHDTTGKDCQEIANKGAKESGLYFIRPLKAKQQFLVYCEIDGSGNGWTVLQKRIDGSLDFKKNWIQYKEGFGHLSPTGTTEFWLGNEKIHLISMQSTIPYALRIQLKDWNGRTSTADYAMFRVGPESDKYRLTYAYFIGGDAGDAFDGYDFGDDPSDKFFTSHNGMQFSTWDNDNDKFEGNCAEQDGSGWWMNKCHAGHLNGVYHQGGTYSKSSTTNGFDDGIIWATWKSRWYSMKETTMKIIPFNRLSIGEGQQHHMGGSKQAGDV
Assay: In vivo MRI, neuroblastoma tumor induced by Neuro 2A cells, Example 18
Conditions: 25 μmol/kg of complex, 4 h post injection, 2T
Description: This test has been performed on mice with neuroblastoma tumor induced by inoculation of 2.10^6 Neuro 2A cells.
Two groups of 5 mice each inoculated were formed to test the Reference compound 2 and the Chelate complex 1.
At day-10 post tumor cells inoculation, mice with similar tumor size (5-10 mm in diameter) were selected for the in vivo MRI tests. Before and post contrast administration, T1 and T2 high resolution 2D spin-echo and 3D gradient echo images were acquired. MRI was performed at 4 h and 24 h post injection. The maximum signal intensity was measured in the entire tumor area and in each image post contrast covering the whole tumor and compared to the pre-contrast images. At the end of MRI exams, all animals were sacrificed and the tumor, blood, liver, kidneys and femoral bone were removed and prepared for Gd assay by ICP. […]
The signal intensity was measured within a region of interest (ROI) including the entire tumor, drawn by an operator on each MR image using a dedicated software (MR Research Systems Ltd, Surrey UK). Signal intensity enhancement (Enh %) was determined as: Enh %=100*(SIx(t)−SI0)/SI0 where SI0 and SIx(t) were the signal intensity of tumor pre and post injection of the contrast agent (test articles or reference), respectively.

Chelate Complex 1: Gd chelate (four DTPA-Glu) conjugated via linker to fibrin-binding peptide SEQ ID NO:001 (WQPCPAESWTFCWDPGGGK; cysteine pairing not given here; also: Gd chelate (four DTPA-Glu) conjugated via linker, site not given here, metal complex: Gd)
Tumor signal enhancement (T1 weighted MRI), in words: high signal enhancement inside tumor | Tumor signal enhancement (T1 weighted MRI), in words (listed as chelate complex 1): significant tumor signal enhancement

From patent publication US9333272B2, “Fibrin binding peptide conjugates for diagnostic and therapeutic applications” (Bracco Imaging SpA, priority 2006, dated 2016)
